What was measured:
human CXCR2 [1] = molecular target: T1, human CXCR2 (human, UniProt P25025 1-360); experiment: ELISA, L1.2 hCXCR2 cells
T1 construct: also called hCXCR2; C-X-C motif chemokine receptor 2
T1 sequence: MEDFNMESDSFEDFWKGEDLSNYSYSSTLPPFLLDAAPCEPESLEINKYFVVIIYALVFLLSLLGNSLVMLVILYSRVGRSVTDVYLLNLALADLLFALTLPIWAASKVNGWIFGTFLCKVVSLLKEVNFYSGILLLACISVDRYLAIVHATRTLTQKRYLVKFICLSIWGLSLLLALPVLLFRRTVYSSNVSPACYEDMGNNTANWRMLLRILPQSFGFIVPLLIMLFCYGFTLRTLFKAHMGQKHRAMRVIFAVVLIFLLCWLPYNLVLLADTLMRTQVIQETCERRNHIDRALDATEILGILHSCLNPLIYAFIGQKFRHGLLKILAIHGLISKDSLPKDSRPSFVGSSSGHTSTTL

human CXCR2 [2] = molecular target: T1, human CXCR2; experiment: flow cytometry on L1.2 hCXCR2 cells
human CXCR7 = molecular target: T2, human CXCR7 (human, UniProt P25106 1-362); experiment: flow cytometry on transfected cells
T2 construct: whole, on cells; also called hCXCR7
T2 sequence (P25106 whole entry): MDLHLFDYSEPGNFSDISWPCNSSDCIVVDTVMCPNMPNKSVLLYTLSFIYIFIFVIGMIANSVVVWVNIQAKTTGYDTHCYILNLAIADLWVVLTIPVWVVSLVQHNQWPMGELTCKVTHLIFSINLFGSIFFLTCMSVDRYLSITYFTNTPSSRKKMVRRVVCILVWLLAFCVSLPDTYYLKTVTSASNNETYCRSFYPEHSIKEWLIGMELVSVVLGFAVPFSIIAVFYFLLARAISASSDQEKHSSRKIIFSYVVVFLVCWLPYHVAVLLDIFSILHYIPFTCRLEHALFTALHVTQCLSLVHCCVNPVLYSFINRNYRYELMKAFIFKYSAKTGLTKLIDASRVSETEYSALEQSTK
Procedure: (§1) To assess reactivity of mAbs against transfected cells, we used indirect immunofluorescence staining and flow cytometry. Cells were washed once with PBS and resuspended in 100 μl PBS containing 2% (wt/vol) BSA and 0.1% (wt/vol) sodium azide (staining buffer) and purified antibody. After 30 min at 4° C., cells were washed twice with staining buffer and resuspended in 50 μl PE-conjugated anti-human IgG (Jackson ImmunoResearch Laboratories) diluted 1:500 in staining buffer for the detection of humanized mAbs or 50 μl PE-conjugated anti-mouse IgG (Jackson ImmunoResearch Laboratories) for the detection of mouse mAbs. After incubating for 20 min at 4° C., cells were washed twice with staining buffer and analyzed on LSRII flow cytometer. 7-AAD staining was used to exclude dead cells.

human CCR6 = molecular target: T3, human CCR6 (human, UniProt P51684 1-374); experiment: flow cytometry on transfected cells
T3 construct: whole, on cells; also called hCCR6
T3 sequence (looked up): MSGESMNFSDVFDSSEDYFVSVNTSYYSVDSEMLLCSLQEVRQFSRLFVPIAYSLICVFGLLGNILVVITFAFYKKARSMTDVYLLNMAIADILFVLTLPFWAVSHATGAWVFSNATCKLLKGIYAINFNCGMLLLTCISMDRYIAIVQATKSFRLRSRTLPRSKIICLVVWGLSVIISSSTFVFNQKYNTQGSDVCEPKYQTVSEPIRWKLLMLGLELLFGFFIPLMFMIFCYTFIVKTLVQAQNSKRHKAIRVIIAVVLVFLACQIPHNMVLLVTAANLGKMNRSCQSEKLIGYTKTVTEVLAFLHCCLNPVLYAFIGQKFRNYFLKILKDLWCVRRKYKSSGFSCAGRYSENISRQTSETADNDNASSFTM
Procedure: as §1

human CXCR1 = molecular target: T4, human CXCR1 (human, UniProt P25024 1-350); experiment: flow cytometry on transfected cells
T4 construct: whole, on cells; also called hCXCR1
T4 sequence (looked up): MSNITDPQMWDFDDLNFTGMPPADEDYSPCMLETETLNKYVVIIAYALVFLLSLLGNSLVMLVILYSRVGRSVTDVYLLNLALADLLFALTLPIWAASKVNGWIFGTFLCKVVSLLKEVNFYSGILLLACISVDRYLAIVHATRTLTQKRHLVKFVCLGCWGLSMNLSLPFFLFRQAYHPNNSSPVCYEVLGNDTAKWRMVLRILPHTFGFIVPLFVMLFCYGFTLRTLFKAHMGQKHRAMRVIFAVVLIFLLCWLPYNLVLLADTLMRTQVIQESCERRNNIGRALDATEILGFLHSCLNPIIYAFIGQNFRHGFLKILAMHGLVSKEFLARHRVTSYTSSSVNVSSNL
Procedure: as §1

human CXCR3 = molecular target: T5, human CXCR3 (human, UniProt P49682 1-368); experiment: flow cytometry on transfected cells
T5 construct: whole, on cells; also called hCXCR3
T5 sequence (looked up): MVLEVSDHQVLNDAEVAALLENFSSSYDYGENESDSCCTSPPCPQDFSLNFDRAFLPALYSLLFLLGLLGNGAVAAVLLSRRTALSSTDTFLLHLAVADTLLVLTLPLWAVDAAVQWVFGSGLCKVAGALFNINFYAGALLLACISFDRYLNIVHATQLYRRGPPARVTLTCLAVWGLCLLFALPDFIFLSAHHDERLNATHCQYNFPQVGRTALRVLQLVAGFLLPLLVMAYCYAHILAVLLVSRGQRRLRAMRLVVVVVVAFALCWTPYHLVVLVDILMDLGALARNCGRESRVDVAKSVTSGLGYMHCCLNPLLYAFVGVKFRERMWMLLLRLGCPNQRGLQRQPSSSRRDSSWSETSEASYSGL
Procedure: as §1

Peptide 1 = molecular target: T6, Peptide 1 (human, biotinylated (position not given)); experiment: ELISA on biotinylated peptide captured on streptavidin
T6 construct: Biotinylated peptide of the human CXCR2 N-terminal region, captured on streptavidin plates; also called Nter-1; Peptide 1/Nter-1
T6 peptide: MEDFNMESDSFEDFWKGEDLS
Procedure: (§2) Epitope mapping studies were performed to determine the region within CXCR2 that is recognized by anti-CXCR2 mAb. Initially, biotinylated peptides corresponding to the N-terminal region and the first, second and third extracellular loops of human CXCR2 were used in an ELISA.
(§3) Three overlapping biotinylated peptides spanning the entire N-terminal region of human CXCR2 were then synthesized and used in more defined anti-CXCR2 mAb epitope mapping studies. Peptide 1 ([…]) (SEQ ID NO:53) corresponds to amino acid position 1-21 of the human CXCR2; Peptide 2 ([…]) (SEQ ID NO:55) corresponds to amino acid position 10-31 and Peptide 3 ([…]) (SEQ ID NO:54) corresponds to amino acid 20-46 position of the human CXCR2. Briefly, multiwell plates were coated with streptavidin and washed before the biotinylated peptides were added to separate wells and incubated to facilitate binding of the peptides to the plate. Different anti-human CXCR2 antibodies were then tested by adding the respective antibodies to the wells of the plate and incubating the plate. An isotype control and buffer only were included as negative controls. Following washing, appropriate conjugated antibodies were added and the plates were incubated. The plates were washed again and binding of the antibodies to the immobilised peptides was visualised.

Peptide 2 = molecular target: T7, Peptide 2 (human, biotinylated (position not given)); experiment: as above
T7 construct: Biotinylated peptide of the human CXCR2 N-terminal region, captured on streptavidin plates; also called Nter-2; Peptide 2/Nter-2
T7 peptide: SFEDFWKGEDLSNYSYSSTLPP
Procedure: as §2, §3

Peptide 3 = molecular target: T8, Peptide 3 (human, biotinylated (position not given)); experiment: as above
T8 construct: Biotinylated peptide of the human CXCR2 N-terminal region; also called Nter-3; Peptide 3/Nter-3
T8 peptide: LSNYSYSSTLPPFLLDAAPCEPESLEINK
Procedure: as §2, §3

[3] = molecular target: T9, biotinylated peptide corresponding to the second extracellular loop of human CXCR2 (human, UniProt P25025 184-208, limits assumed, biotinylated (position not given)); experiment: as above
T9 construct: domain: second extracellular loop; also called 2nd loop
T9 peptide (looked up): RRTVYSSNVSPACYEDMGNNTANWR
Procedure: as §2, §3

human CXCR2 [4] = molecular target: T10, human CXCR2 (UniProt P25025 1-360); experiment: flow cytometry, CXCR2 L1.2 cells
T10 chain: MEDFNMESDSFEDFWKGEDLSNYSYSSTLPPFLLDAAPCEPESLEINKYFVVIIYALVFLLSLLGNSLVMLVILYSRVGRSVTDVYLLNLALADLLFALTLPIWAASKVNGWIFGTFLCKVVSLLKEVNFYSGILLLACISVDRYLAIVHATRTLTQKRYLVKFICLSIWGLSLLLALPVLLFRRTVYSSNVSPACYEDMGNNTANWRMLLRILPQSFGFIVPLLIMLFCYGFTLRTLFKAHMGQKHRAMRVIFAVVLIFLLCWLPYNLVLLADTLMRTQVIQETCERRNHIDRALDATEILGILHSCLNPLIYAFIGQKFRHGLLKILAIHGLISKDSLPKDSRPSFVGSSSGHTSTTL

human CXCR2 [5] = molecular target: T1, human CXCR2; experiment: competition with 125I-labelled CXCL3 (GRO-g) for CXCR2 on human neutrophils
Procedure: For ligand binding analysis, recombinant human GRO-g (“ligand”) was obtained from Peprotech (New Jersey, USA). 1251-Bolton-Hunter-labelled GRO-g was purchased from Perkin-Elmer (Boston, Mass., USA), with a specific activity of 2200 Ci/mM. Cells were washed once in binding buffer (50 mM Hepes, pH 7.5, 1 mM CaCI, 5 mM MgCb, 0.5% BSA) and resuspended in binding buffer at a concentration of 2.5×10^6 cells/ml. Cold Purified monoclonal antibody (cold competitor) was added to a 96-well plate followed by an equal volume (40 μl) binding buffer containing 1×10^5 cells. Cells and competitor were preincubated at room temperature for 15 min. Then radiolabeled ligand (final concentration 0.5-2 nM) was added to each well to give a final reaction volume of 120 μl. After a 60-min incubation at room temperature, the cells were washed three times with 1 ml of binding buffer containing 150 mM NaCl. The radioactivity (amount of bound label) in the cell pellets was counted in a TopCount liquid scintillation counter (Packard). Non-specific background binding was calculated by incubating cells […] radiolabelled-ligand. Samples were assayed in duplicate.

B1: m3H9 (antibody, mouse IgG3, V domains shown)
VH: QVQLQQSGPELVKPGASVKISCKASGYAFSNSWMNWVKQRPGKGLEWIGRIYPGDGNINYYGKFKDKATLTADKSSNTAYMQLSSLTSEDSAVYFCARSFLYVDFDYWGQGTTLTVSS
VL: VIVMTQTPLSLPVSLGDQASISCRSSQSLVHSNGNTYLQWYLQKPGQSPKLLIYKVSNRFSGVPDRFSGSGSGTDFTLKISRVEAEDLGVYFCSQGTHVPYTFGGGTKLEIKR
notes: also called mouse 3H9; purified mouse 3H9 mAb
**Q.** Which results are given for B1?
**A.** EC50 (human CXCR2 [1]): 1.2 nM; EC50 (human CXCR2 [2]): 1.05 nM; binding result (human CXCR7): no binding; binding result (human CCR6): no binding; binding result (human CXCR1): no binding; binding result (human CXCR3): no binding; binding result (Peptide 1): binds; binding result (Peptide 2): binds; binding result (Peptide 3): no binding; binding result [3]: no binding; EC50 (human CXCR2 [4]): 1.5 nM; IC50 (human CXCR2 [5]): 0.7 nM

B2: h3H9 (antibody, V domains shown)
VH: QVQLVQSGAEVKKPGASVKVSCKASGYAFSNSWMNWVRQAPGQRLEWIGRIYPGDGNINYYGKFKDKATLTADKSANTAYMELSSLRSEDTAVYFCARSFLYVDFDYWGQGTTLTVSS
VL: DIVMTQSPLSLPVTPGEPASISCRSSQSLVHSNGNTYLQWYLQKPGQSPQLLIYKVSNRFSGVPDRFSGSGSGTDFTLKISRVEAEDVGVYFCSQGTHVPYTFGQGTKLEIKR
**Q.** Which EC50 (human CXCR2 [4]) does the source give for B2 here?
**A.** 2.2 nM

B3: mCM2 (antibody, V domains shown)
VH: QVQLQQSGPELVKPGASVKISCKASGYAFSNSWMNWVKQRPGKGLEWIGRIYPGDGNINYYGKFKDKATLTADKSSNTAYMQLSSLTSEDSAVYFCARSFLYVYFDYWGQGTTLTVSS
VL: DAVMTQTPLSLPVSLGDQASISCRSSQSLVHSNGNTYLQWYLQKPGQSPKLLIYKLSNRFSGVPDRFSGSGAGTDFTLKISRVEAEDLGVYFCSQSTHVPYTFGGGTKLEIKR
notes: Mouse hybridoma monoclonal antibody
**Q.** B3 was tested. Which EC50 (human CXCR2 [1]) did it give?
**A.** 1.4 nM

**Q.** What about the EC50 (human CXCR2 [2]) of the same binder?
**A.** 1.35 nM

**Q.** Does B3 bind (human CXCR7)?
**A.** no binding

**Q.** Does B3 bind (human CCR6)?
**A.** no binding

**Q.** Does B3 bind (human CXCR1)?
**A.** no binding

**Q.** Does B3 bind (human CXCR3)?
**A.** no binding

**Q.** Does B3 bind (Peptide 1)?
**A.** binds

**Q.** Does B3 bind (Peptide 2)?
**A.** binds

**Q.** Does B3 bind (Peptide 3)?
**A.** no binding

**Q.** Does B3 bind [3]?
**A.** no binding

**Q.** What about the IC50 (human CXCR2 [5]) of the same binder?
**A.** 11.1 nM

B4: m6G7 (antibody, V domains shown)
VH: QVQLQQSGPELVKPGASVKISCKASGYAFSNSWMNWVKQRPGKGLEWIGRIYPGDGNINYYGKFKDKATLTADKSSNTAYMQLSSLTSEDSAVYFCARSFLYVDFDYWGQGTTLTVSS
VL: DVVMTQAPLSLPVSLGDQASISCRSSQTLVHSNGNTYLQWYLQKPGQSPKLLIYKVSNRFSGVPDRFSGSGSGTDFTLKISRVEAEDLGVYFCSQGTHVPYTFGGGTKLEIKR
notes: as for B3
**Q.** Which EC50 (human CXCR2 [1]) does the source give for B4 here?
**A.** 1.46 nM

**Q.** And the EC50 (human CXCR2 [2])?
**A.** 1.28 nM

**Q.** Does B4 bind (human CXCR7)?
**A.** no binding

**Q.** Does B4 bind (human CCR6)?
**A.** no binding

**Q.** Does B4 bind (human CXCR1)?
**A.** no binding

**Q.** Does B4 bind (human CXCR3)?
**A.** no binding

**Q.** Does B4 bind (Peptide 1)?
**A.** binds

**Q.** Does B4 bind (Peptide 2)?
**A.** binds

**Q.** Does B4 bind (Peptide 3)?
**A.** no binding

**Q.** Does B4 bind [3]?
**A.** no binding

**Q.** And the IC50 (human CXCR2 [5])?
**A.** 3.4 nM

— US20190016809A1 (MONASH UNIVERSITY, published 2019)
